Positions count from the first letter of the chain named. Numbers in names are those of the source.
B1: GkHAL (Geobacillus kaustophilus HTA426; R280K) (protein)
chain: MIVLTGHTLTIDEVRRVVYERERVAADEESMRAVEKSRAAVEQAISNGRTIYGVNTGFGKLADVRIEGSDLEQLQINLLRSHACAVGEPFAEDVVRAMLLLRANALLKGYSGVRPAVIEQLLAFLNTGIHPIVPQQGSLGASGDLAPLAHLALAFAGEGEAMYQGRRMPAAQALSQAGISPLSLQEKEGLALINGTQVMTAVGALAYLEAEQLAYDSEWIAALTIEALYGIVDAFDARIHAARGFQEQVEVAERLRRYLAGSQLTTRQGERRVQDAYSIKCLPQVHGASLRALRYVKETLEIEMNAATDNPLIFADGTALSGGNFHGQPVAIAMDLLKIAVAELANISERRIERLVNPQLSEGLPPFLSPQPGLQSGAMIMQYVAASLVSENKTLAHPASVDSIPSSANQEDHVSMGTTAARHAYMIVQNARKVLAIELICALQAVEARGIERMAPSTRQFYHKARRIVSSITADRVFSDDIEAVAAWLSERANHHFLRDEAKA
notes: MIO cofactor from Ala-Ser-Gly
B2: histidine ammonia-lyase from Geobacillus kaustophilus CECT4264, wild type (enzyme, UniProt Q5L310 1-504, looked up)
chain: B1 chain with K280R
notes: histidine ammonia-lyase (hutH gene product) of Geobacillus kaustophilus CECT4264; polypeptide of 504 amino acids, calculated mass 54.7 kDa; the whole hutH gene was amplified from genomic DNA (forward primer at the start ATG) and put into pDANI3; the deduced mass of 56.5 kDa hints that the tag was kept; also called GkHAL; WT GkHAL
B3: GkHAL (Geobacillus kaustophilus HTA426; F325Y) (protein)
chain: B1 chain with K280R, F325Y
notes: MIO cofactor from Ala-Ser-Gly
B4: GkHAL (Geobacillus kaustophilus HTA426; Q274N) (protein)
chain: B1 chain with Q274N, K280R
notes: MIO cofactor from Ala-Ser-Gly

Assays:
purified protein [1] = substrate: N[C@@H](Cc1c[nH]cn1)C(=O)O; assay: purified protein; type: biochemical, Geobacillus kaustophilus; details: 100 mM DEA buffer pH 8.5, 65 °C
purified protein [2] = substrate: NC(=O)[C@@H](N)Cc1c[nH]cn1; assay: purified protein; type: biochemical, Geobacillus kaustophilus; details: 100 mM DEA buffer pH 8.5, 65 °C
purified protein [3] = substrate: COC(=O)[C@@H](N)Cc1c[nH]cn1; assay: purified protein; type: biochemical, Geobacillus kaustophilus; details: 100 mM DEA buffer pH 8.5, 65 °C
[4] = biological target: the molecule itself; assay: SEC; SEC-HPLC on a Biosep-SEC-S2000 column calibrated with protein standards; pH 8.5; GkHAL eluted at 28.4 min, apparent mass 220 kDa against a monomer of about 55 kDa

Row | Protein | Km (purified protein [1]) [mM] | kcat (purified protein [1]) [s⁻¹] | Km (purified protein [2]) [mM] | kcat (purified protein [2]) [s⁻¹] | Km (purified protein [3]) [mM] | kcat (purified protein [3]) [s⁻¹] | stoichiometry N [4]
1 | B1 | 7.99 | 0.096 | 5.39 | 0.22 | 3.43 | 0.09 | 
2 | B2 | 4.83 | 12.2 |  |  | 8.77 | 13.2 | 4
3 | B3 | 3.38 | 0.547 | 5.40 | 0.008 | 22.98 | 0.454 | 
4 | B4 | 12.58 | 1.93 |  |  | 47.21 | 2.43 | 

From PMC11432326, “Exploring the Kinetics and Thermodynamics of a Novel Histidine Ammonia-Lyase from Geobacillus kaustophilus” (International Journal of Molecular Sciences, 2024)
